Data from publication PMC5800842.

Tests used:
[1] = molecular target: ZNRF3/RNF43
[2] = molecular target: LGR4 (human (endogenous in HAP1)) (UniProt Q9BXB1)

Row | EC50 of potentiation of WNT reporter fluorescence in WT HAP1-7TGP cells with 1.43% WNT3A CM, fold over wild-type RSPO3 [1] | EC50 of potentiation of WNT reporter fluorescence in WT HAP1-7TGP cells with 1.43% WNT3A CM, fold over wild-type RSPO3 [2] | efficacy (maximum WNT reporter activity) in WT HAP1-7TGP cells with 1.43% WNT3A CM, reduction against wild-type RSPO3 [2] | Binder
1 | 21 fold |  |  | HA-RSPO3 R67A/Q72A-Tev-Fc-Avi-1D4 (Fc fusion) QNASRGRRQRRMHPNVSQGCQGGCATCSDYNGCLSCKPRLFFALEAIGMKAIGVCLSSCPSGYYGTRYPDINKCTKCKADCDTCFNKNFCTKCKSGFYLHLGKCLDNCPEGLEANNHTMECVSIVHCEVSEWNPWSPCTKKGKTCGFKRGTETRVREIIQHPSAKGNLCPPTNETRKCTVQRKKCQKGERGKKGRERKRKKPNKGESKEAIPDSKSLESSKEIPEQRENKQQQKKRKVQDKQKSVSVSTVH
2 |  | 2.9 fold | 48 % reduction | HA-RSPO3 F106E/F110E-Tev-Fc-Avi-1D4 (Fc fusion) QNASRGRRQRRMHPNVSQGCQGGCATCSDYNGCLSCKPRLFFALERIGMKQIGVCLSSCPSGYYGTRYPDINKCTKCKADCDTCENKNECTKCKSGFYLHLGKCLDNCPEGLEANNHTMECVSIVHCEVSEWNPWSPCTKKGKTCGFKRGTETRVREIIQHPSAKGNLCPPTNETRKCTVQRKKCQKGERGKKGRERKRKKPNKGESKEAIPDSKSLESSKEIPEQRENKQQQKKRKVQDKQKSVSVSTVH
